From paper PMC12691637 come the findings set out here.

This experiment deals with cytosolic fragment of the McpN chemoreceptor (McpN_CF) (Pseudomonas aeruginosa PAO1). In words: ITC; VP microcalorimeter, 25°C; 3 mM Tris, 3 mM PIPES, 3 mM MES, 5 mM 2-mercaptoethanol, pH 8.0; 10 µM cytosolic fragment in the sample cell titrated with 12.8 µL aliquots of 113 µM CheV or CheV D238E; 'Two Binding Sites' model.

In turn, “CheV D238E (phosphorylation mimic) of Pseudomonas aeruginosa PAO1 (natural protein)” came in with a KD of the first event (high affinity, endothermic) of 8 nM; a KD of the second event (lower affinity, exothermic) of 3000 nM; a N of the first event of 0.5.
